# From patent US20250262210A1 (TRUSTEES OF COLUMBIA UNIVERSITY IN THE CITY OF NEW YORK, published 2025)
# B1: LZTR1-FLAG (other, human, UniProt Q8N653 1-840, looked up)
# chain: MAGPGSTGGQIGAAALAGGARSKVAPSVDFDHSCSDSVEYLTLNFGPFETVHRWRRLPPCDEFVGARRSKHTVVAYKDAIYVFGGDNGKTMLNDLLRFDVKDCSWCRAFTTGTPPAPRYHHSAVVYGSSMFVFGGYTGDIYSNSNLKNKNDLFEYKFATGQWTEWKIEGRLPVARSAHGATVYSDKLWIFAGYDGNARLNDMWTIGLQDRELTCWEEVAQSGEIPPSCCNFPVAVCRDKMFVFSGQSGAKITNNLFQFEFKDKTWTRIPTEHLLRGSPPPPQRRYGHTMVAFDRHLYVFGGAADNTLPNELHCYDVDFQTWEVVQPSSDSEVGGAEVPERACASEEVPTLTYEERVGFKKSRDVFGLDFGTTSAKQPTQPASELPSGRLFHAAAVISDAMYIFGGTVDNNIRSGEMYRFQFSCYPKCTLHEDYGRLWESRQFCDVEFVLGEKEECVQGHVAIVTARSRWLRRKITQARERLAQKLEQEAAPVPREAPGVAAGGARPPLLHVAIREAEARPFEVLMQFLYTDKIKYPRKGHVEDVLLIMDVYKLALSFQLCRLEQLCRQYIEASVDLQNVLVVCESAARLQLSQLKEHCLNFVVKESHFNQVIMMKEFERLSSPLIVEIVRRKQQPPPRTPLDQPVDIGTSLIQDMKAYLEGAGAEFCDITLLLDGHPRPAHKAILAARSSYFEAMFRSFMPEDGQVNISIGEMVPSRQAFESMLRYIYYGEVNMPPEDSLYLFAAPYYYGFYNNRLQAYCKQNLEMNVTVQNVLQILEAADKTQALDMKRHCLHIIVHQFTKVSKLPTLRSLSQQLLLDIIDSLASHISDKQCAELGADI
# notes: Expressed in HEK 293T, HeLa or U87 cells; used as cell lysate; also called LZTR1 wild type-FLAG; LZTR1 WT; not shown: FLAG tag at the C-terminus
# Columns and labels:
# AXL = AXL (human, UniProt P30530 26-894, limits assumed); assay: IP/MS, U87 cells (summary of Example 1)
# Experimental: (§1) Lysates were immunoprecipitated with FLAG affinity matrix and eluted with FLAG peptide. […] Protein gel slices were excised and in-gel digestion performed as previously described (83), with minor modifications. Gel slices were washed with 1:1 A cetonitrile and 100 mM ammonium bicarbonate for 30 min then dehydrated with 100% acetonitrile for 10 min until shrunk. The excess acetonitrile was then removed and the slices dried in speed-vacuum at room temperature for 10 min. Gel slices were reduced with 5 mM DTT for 30 min at 56° C. in an air thermostat, cooled down to room temperature, and alkylated with 11 mM IAA for 30 min with no light. Gel slices were then washed with 100 mM of ammonium bicarbonate and 100% acetonitrile for 10 min each. Excess acetonitrile was removed and dried in a speed-vacuum for 10 min at room temperature and the gel slices were re-hydrated in a solution of 25 ng/μl trypsin in 50 mM ammonium bicarbonate for 30 min on ice and digested overnight at 37° C. in an air thermostat. Digested peptides were collected and further extracted from gel slices in extraction buffer (1:2 ratio by volume of 5% formic acid:acetonitrile) at high speed, shaking in an air thermostat. […] The following modifications were used for protein identification and quantification: oxidation of methionine (M), acetylation of the protein N-terminus, and deamination for asparagine or glutamine (NQ).
# EGFR = target: T1, EGFR (human, UniProt P00533 25-1210); assay: IP/MS, U87 cells (summary of Example 1)
# T1 construct: also called epidermal growth factor receptor
# Experimental: as §1
binder,measurement,setting,value
B1,binding result,AXL,binds
same,binding result,EGFR,binds
